# Measurements: the DeepSol protein solubility set
# Assay: soluble on expression in E. coli; label from the status in PepcDB or PDB records
row,Sequence,soluble on expression in E. coli
1,MGSDKIHHHHHHMPAFPLNAWYAAAWDADIKHALFPRTICGKHVVMYRKADGTVAALEDACWHRLVPLSKGRLEGDTVVCGYHGLKFNPQGRCTYMPSQETINPSACVRSYPVVERHRFVWLWMGDPVLADPALVPDMHWNDDPAWAGDGKTIYAKCDWRLVVDNLMDLTHETYVHGSSIGNEAVAEAPFDVTHGDRTVTVTRWMKGIEPPPFWAAQLGKPGLVDRWQIIRFEAPGTVTIDVGVAPAGTRAPEGDRSQGVNGFVLNTMTPETDTTCHYFWAFVRNYRLSEQRLTTEIREGVSGIFREDEIILEAQQRAMLENPDRVFYNLNIDAGAMWSRKLIDRMVAQESAPKLQAAE,not soluble
2,MSLESTNRLRYLIAGTGGVGGSIAGFLSLAGKDVTCIARGAHLQAIQQDGLKLKSDLKGEHALRINACTAEEYNGKADVIFVCVKGYSVDSITELIKRAAHDRTIVIPILNVYGTGPRIQRLVPGVTVLDGCIYIVGFVSGPGEITQMGTIFRLVYGAHRGILVPAGLMEAVQRDLQESGIKVEISSDINRDTFIKWSFISAMAVTGAYFDVPMGEVQKPGKVRDTFIGLSTESAALGKKLGIEFKEDIVTYNLKVIDKLAPESTASMQKDIARGHESEVQGLLFDMITAAEEQGIDVPTYREVAKKFIKQEGHHHHHH,soluble
3,MEAHNVEISTRLTPEMKNQGTIELLYKALQQGDTSTVTKVVASDVEWWFHGPHDCQHMMRLLTGEPPRQVSFRFEPSSVQVVVPGHDCVIAEGWEGSRVYWVHVWKLKDGVVTELREYFNTWLTVTDYSLGAVGWDMGRCTVWESVPRDLARGSLPSLLLAI,soluble
4,MAVGAALPPIPEGAPVLIAGPTASGKSALALEIAERFGGVIVNADASQVYDCWRAISARPSPEEEARAPHLLYGHLPYDAPYSAGHWLREVTPLLDGTARPIIVGGTGLYFTALTEGMADIPATPPDVRAEADTLPLDRLLAGIDPATAAGLDRNNRARVQRAWEVERATGRALHLWQADTPPPPLPLARTVPLVLEVDKLWLWDRIARRFDQMLDQGALDEVAAMAARYDPALPAFKAIGVPELMAHLRGEITLDAARERASIATRQYAKRQRSWFRARMGDWHRLPVGGLEHHHHHH,not soluble
5,VPGTVEVVFDKPEYRTGEEASALITFPEPVEDALLSLERDKVEATALLSKGADWLRLEKLNPTQYRVWIPVREEFSPNLTFSVLYTKGGDYSFQNAGIKVGMPQVEIDIATDKERYEPGETVTVTLATRFAGKPVSSHLTVSVVDEMVYALQAE,not soluble
6,MSLTKQVYIIHGYRASSTNHWFPWLKKRLLADGVQADILNMPNPLQPRLEDWLDTLSLYQHTLHENTYLVAHSLGCPAILRFLEHLQLRKQLGGIILVSGFAKSLPTLQMLDEFTQGSFDHQKIIESAKHRAVIASKDDQIVPFSFSKDLAQQIDAALYEVQHGGHFLEDEGFTSLPIVYDVLTSYFSKETREGGSHHHHHH,soluble
7,MSLHEFQTDSKNKHKVDVHIGIYAPFSSHSAFIGRNILAAMEMGSERLQSSDIHYSFYTLDQLPKNKNAGLVLQKFIDTHHINVLVTGGKETGLIAAPIAKKNNLIHFSLTNNTEVADGRNNFIVWSPAYDQAKVLVNELKRQQVHHLGIITANQPSSTALTHSVIKQLQSDSHIDVAASEYFEPGNKDFSRLTNRIKRKNADMYLVMASPEDIKLIQEQMEADKQHVPITSIVERATPEVVKVFEGQWYVDSHEMQPDFINEFKQNYLNYPVTEAGYAFDLFQLLNKSIVMAIRTQGSPTTSQEVVHQLHDIANGTGVMGTMVLDSKGSLFTKSEVKTVKNGEIHTVEGHHHHHH,soluble
8,MKGFQFKVIQEKLQGRQFINSDKIKPDHPQTIIKKTLLKEYQSKNFSCQEERDLFLEFTEKIVQNFHNINFNYLLKKFCKLPENYQSLKSQVKQIVQSENKANQQSCENLFNSLYDTEISYKQITNFLRQIIQNCVPNQLLGKKNFKVFLEKLYEFVQMKRFENQKVLDYICFMDVFDVEWFVDLKNQKFTQKRKYISDKRKILGDLIVFIINKIVIPVLRYNFYITEKHKEGSQIFYYRKPIWKLVSKLTIVKLEEENLEKVEEKL,soluble
9,MANSAGSMADNSKTRVVVGMSGGVDSSVTALLLKEQGYDVIGIFMKNWDDTDENGVCTATEDYKDVAKVADQIGIPYYSVNFEKEYWDRVFEYFLAEYRLGRTPNPDVMCNKEIKFKAFLDYAMQLGADYVATGHYAQVETDENGVVHMLRGIDNNKDQTYFLSQLSQAQLAKTMFPLGGMEKSEVRAIAERAGLATAKKKDSTGVCFIGEKNFKEFLSNYLPAKKGNMVTEDGEIKGQHDGLMYYTIGQRQGLGIGGGGKTQEPWFVIGKDLTTNTLYVGQGFHHEKLYATHLEASEVHFTVDTPMPKEFDCTAKFRYRQADIPVHVSLSEDGTKATVTFKEPARAVTPGQAVVFYDGMECLGGGLIDRAYQDEKELQYVLEHHHHHH,not soluble
10,MGSDKIHHHHHHMAPRTKTRERIVQASLELFNQQGERCITTNHIAAHMEISPGNLYYHFANKQVIIAELFTQYETLVGSFLTLRTDRLPTIEDKRDYFLAMIDAMWRYRFLHQDLEHLLTSDAELARRYRRFSYRCLMQAMNIYRGFIKAGILQMDESQIEWTSLNTWIVLTSWVRFLCTNRENNAELNESAIRRGVYQVLMLESVFVAPQAREAFDALCETFHSSLPEALA,not soluble
11,MGSDKIHHHHHHMVLLETNRLRLQTIDIPLLDAASKQDHQAIKELGYETNGEWPNSDFFEAIPYFREILVKNNGTKGFDSWIIVKKDNYEIVGGTGFLGDPDENGMIEIGFATNKSHRRKGYCVEAAQKLINWALSRETVSRITARCEHDNLGSQKTLEKLGFILNHKSAEYKHWIYVTK,not soluble
12,MQVLDKTQVEAVSKALGEPAWLLEKRLKALEAFARLPYPSKKDENWRYTDLSEAPLELPVEAPKGLRLSRDDLPEPVKRRLERTDVSGFLVFVGPDLVYAEVPEALKEKGLVFTSLAEALKTHPDKVEAALFQAVYTEDKFAAQNSAFFTHGAFLYVPAGLEVEKPLGVFKVLLEGEKASAGRSLLFLEDNAKAAYIEEYLSLDLPPTLHLSATEMVLRPGARLRHAHVQTFGEGVWHFHRQRALLERDSGLNDLVVNLGGAYARSEVASELVGPGAESEMLGLYFGHGRQQFDHYTLQHHVEHHTRSDLLYKGAVKDEARAVFSGLIRLEKGAQKTDAYQANRNLLLSPTARVDSIPQLEIGANDVRCTHGSTTAPVDEMQLFYLQSRGLPRGLAQELLVKAHLADVLSRIPLKALRAHIEAVIEEKVRI,soluble
13,PEITGQVSLPPGKRTNLRKTGSERIAHGMRVKFNPLPLALLLDSSLEGEFDLVQRIIYEVDDPSLPNDEGITALHNAVCAGHTEIVKFLVQFGVNVNAADSDGWTPLHCAASCNNVQVCKFLVESGAAVFAMTYSDMQTAADKCEEMEEGYTQCSQFLYGVQEKMGIMNKGVIYALWDYEPQNDDELPMKEGDCMTIIHREDEDEIEWWWARLNDKEGYVPRNLLGLYPRIKPRQRSLA,soluble
14,MVHKSVESPAFSASIEDYALIGDQQSAALVARDGSIDWLCLPRFDSPACFAALLGDEHNGKWRIAPKGAGPCTRRAYRTDSLVLDSEWDTPEGTLRVTDLMPQRDSAPDLVRIVEGLRGRVTVRSAIRLRFDYGLEHHHHHH,soluble
15,MSELNALLKDINGSLTATSESLERLSGIYSNSATDEIPESNQLHEHLFYDAKKPAEKVSLLSLKNGSMLGYINSLLMLIGNRLDDECKDPSAMDARERSIQHRVVLERGVKPLEKKLAYQLDKLTRAYVKMEKEYKDAEKRALEKSTLVNHSGNDDSEDDESSEDEIAYRPNTSGIINTNKKSSAYRVEETAKQENGEENDDNETGVYKPPKITAVLPPQQTHFEDRFDAREHKDRSNKSRMQAMEEYIRESSDQPDWSASIGADIVNHGRGGIKSLRDTEKERRVTSFEEDNFTRLNITNKAEKRKQKQRERNARMNVIGGEDFGIFSSKRKLEDSTSRRGAKKTRSAWDRAQRRL,soluble
16,TLREGWVVHYSNKDTLRKRHYWRLDCKCITLFQNNTTNRYYKEIPLSEILTVESAQNFSLVPPGTNPHCFEIVTANATYFVGEMPGGTPGGPSGQGAEAARGWETAIRQALM,soluble
17,MEIVRTKQFSLKPMDSEEAVLQMNLLGHSFYVYTDAETNGTNIVYSRKDGKYGLIETNLEHHHHHH,not soluble
18,MMHNPAHPGEVLKVAFLEEMGLTIQKLADHLHMTRASLSRVINGHASMSTELAIKLELAGFSKAKFWLDMQTNYNLWKTMQQAQPPISPLVSDSPQTSL,not soluble
19,SVLVLDDRIVDAATKDLYVNGFQEEIQYQNPTPENLQHMFHQGIEILDSARMINVTHLALWKPSSFKLGNPVDFALDDNYDTFWQSDGGQPHQLDIMFSKRMDICVMAIFFSMIADESYAPSLVKVYAGHSPSDARFYKMLEVRNVNGWVALRFLDNREDDQLLKCQFIRLLFPVNHENGKDTHLRGIRLYVPSNEPHQDTHEWAQTLPETNNVFQDAILR,soluble
20,MGSDKIHHHHHHMLDLINVSYDTQIPNNVGLSQDKKVLKALEKWHPGYINWWNDLIPQNFQESLVYLRTAVSVDPKGWAKFDYVKMPEYRWGVLLAPQVENRTIPCGEHYGQPAWQEVPGEYRNLLKRLIVIQGDTEPASVEQQRLLALTAPSLYDMRNLFQVNVEEGRHLWAMVYLLHKYFGRDGREEADDLLRRQSGSEEAPRMLGAFNEETPDWLSFFMFTYFTDRDGKMQLESLAQSGFDPLSRTCRFMLTEEAHHMFVGETGVGRTIERTCQVMKENGIDDPYDTGRIRDLGVIDLPLIQKKLNLHYTLSLDLFGQEVSTNAANAFNAGIKGRYMENRLTDDHQLQQDTYTVWDFEDGKAVQKQVAALTAINMRLRDDYTKDAAGGVGRWNKIIEKHGVDFQLSLPHEAFHRKIGVFADKHFDPSGQPVSGAEYDAGLPKWLPTHADGDFIQSLMKPCYEPGQYARWIAPPKVGIDNRPGDFEYVKLHMA,not soluble
21,MAHHHHHHMKMISFNVFRHVESPACCPPASFVADLSITSKKNTHKHLLSFFIFPLFLESLSVMLPTQKPVLFTPGPLMTSDTVKEAMLTDYASRDIRFVQAVKFIREELISVAGLDPQKWACILQQGSGSMGIEAAISTIFPRTGGKFLLINSGKYSEKQACVVKRLQFPMVMLKMGEGEELKMSALESIIRANPDITTVGFVHHETSTGMLYPAEQIAEVVRRELPKAKIIIDGISAFGGIPCDYEKACDVLVAAPNKCLHSVPGISIILARRLLIEAAKGCARSATLDLSMQLMSFDKSGQFAVTPPVHVVMALQQALVEYKRDGGLSGRQKTYQAKAQLVREAVKAMGFTLFLGESKPSCANVVVCVNMPRDPRWNFKRFYTYLNERGLIIYPGKASHAETFRFGIIGHTSLANCERLMKCAKEALKSMGIDHLQRKSNM,not soluble
22,MGSDKIHHHHHHAGFGVAGLSEKTYKTVLNTNMGALYSPSLSAQVVDGACYLINYELDLNSPENANAATNGYLTATISVADEITKGQPVFYNVPDSASLLQNEIPVKNLFSNGDYGVYVDGYLFFFITMDMFKDQKNSYTLYWDRSKEPTMVDNVPTYDLFLRVAKVADGTGSAASSIGEVRAFNVKSVLESVNSAEANKDSKSFNLKVNYLNTINEKDSTDLKWASYTVLFQVVKNS,not soluble
23,MAQTQLSYKNKTYQISYEILGDLSLPQILILHGWGADKKLMKQSFCPFLKDFCQIYMDLAGFGNSSVEEILNTQDYANITELFLKQKKLNVCFFMGHSFGGKVSTLLAKEKDTLILLSSAGILAKKSLKVRFKIRIFKILKLFGLGKFYRYFASKDGANLSPIMYETFKKVVDEDFSEIFAKQKAKSLIFWGKSDEATPLYCGEKMHQFLKNSTFYPLEGDHFFFLKHSAFIAQKIKEI,not soluble
